Data: patent US20260028403A1 (Zymeworks, published 2026)

Key:
[1] = target: T1, Recombinant human/cynomolgus/rhesus macaque CD28 mouse IgG2a Fc fusion protein (Acro Biosystems) (human/cynomolgus/rhesus macaque, UniProt P10747 19-152); experiment: SPR, in-format anti-CD28 variants, huCD28
T1 construct: bought; also called huCD28

[2] = target: T2, CD28 on primary human T cells (human, UniProt P10747 19-220); experiment: cell-based or functional assay
[3] = target: T2, CD28 on primary human T cells; experiment: cell-based or functional assay; remark: listed apart in the source
[4] = target: T3, Recombinant MSLN his tag protein (R&D systems) (UniProt Q13421 296-580, limits assumed); experiment: SPR Biacore T200, MSLN-his on CM5, construct flowed, 1:1 model
T3 construct: his tag; also called mesothelin

[5] = target: T4, Recombinant human CD3 epsilon/delta heterodimer, his tag protein (Acro Biosystems) (human, UniProt P07766 23-126; P04234 22-105); experiment: SPR Biacore T200, CD3 e/d-his on CM5, construct injected, 1:1 model;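 also: measured at 25 °C in HEPES-buffered saline with EDTA and Tween 20 at pH 7.4, values are means of three independent runs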
T4 construct: bought

B1: v37689 (trispecific antibody, human IgG1, kappa, L234A L235A)
heavy 1: not shown
heavy 2: QVQLVESGGGLVQPGGSLRLSCSVSGIDLSSNPMIWVRQAPGKGLQYIGIIDTDGSTYYADWAKGRFTISKDSTTVYLQINSPRAEDTAVYYCARRLHGSSNGYYDDLWGQGTLVTVSSGGGGSGGGGSGGGGSGGGGSDGQMTQSPSSVSASVGDRVTITCQASQSIYSYLSWYQQKPGQRPKLLIYKASTLASGVPSRFSGSGSGTDFTLTISSVQPEDFATYYCQQGYTVTNVDKNTFGGGTKVEIKAAEPKSSDKTHTCPPCPAPEAAGGPSVFLFPPKPKDTLMISRTPEVTCVVVSVSHEDPEVKFNWYVDGVEVHNAKTKPREEQYNSTYRVVSVLTVLHQDWLNGKEYKCKVSNKALPAPIEKTISKAKGQPREPQVYVLPPSRDELTKNQVSLLCLVKGFYPSDIAVEWESNGQPENNYLTWPPVLDSDGSFFLYSKLTVDKSRWQQGNVFSCSVMHEALHNHYTQKSLSLSPG
light: DIQMTQSPSSLSASVGDRVTITCRASESVEYYVTSLMQWYQQKPGKAPKLLIYAASNVDSGVPSRFSGSGSGTDFTLTISSLQPEDIATYYCQQSRKVPFTFGGGTKVEIKRTVAAPSVFIFPPSDEQLKSGTASVVCLLNNFYPREAKVQWKVDNALQSGNSQESVTEQDSKDSTYSLSSTLTLSKADYEKHKVYACEVTHQGLSSPVTKSFNRGEC
notes: also called v37638 format, CD28 VH N1111aA
- Fold-change from WT [1]: 10.8 fold
- Kd [1]: 239 nM
- koff [1]: 0.0211 s⁻¹
- kon [1]: 89600 M⁻¹ s⁻¹
- IC50, T cell-dependent cytotoxicity on SNU 601 [2]: 0.12 pM
- Maximum Killing (%), SNU 601 [2]: 93.4%
- IL-2 maximum cytokine, T cells alone [3]: 677 pg/mL
- IL-2 maximum cytokine, T cells with SNU 601 cells [3]: 3210 pg/mL
- TNFa maximum cytokine, T cells alone [3]: 58.9 pg/mL
- TNFa maximum cytokine, T cells with SNU 601 cells [3]: 543 pg/mL

B2: v37691 (trispecific antibody, human IgG1, kappa, L234A L235A)
heavy 1: not shown
heavy 2: QVQLVESGGGLVQPGGSLRLSCSVSGIDLSSNPMIWVRQAPGKGLQYIGIIDTDGSTYYADWAKGRFTISKDSTTVYLQINSPRAEDTAVYYCARRLHGSSNGYYDDLWGQGTLVTVSSGGGGSGGGGSGGGGSGGGGSDGQMTQSPSSVSASVGDRVTITCQASQSIYSYLSWYQQKPGQRPKLLIYKASTLASGVPSRFSGSGSGTDFTLTISSVQPEDFATYYCQQGYTVTNVDKNTFGGGTKVEIKAAEPKSSDKTHTCPPCPAPEAAGGPSVFLFPPKPKDTLMISRTPEVTCVVVSVSHEDPEVKFNWYVDGVEVHNAKTKPREEQYNSTYRVVSVLTVLHQDWLNGKEYKCKVSNKALPAPIEKTISKAKGQPREPQVYVLPPSRDELTKNQVSLLCLVKGFYPSDIAVEWESNGQPENNYLTWPPVLDSDGSFFLYSKLTVDKSRWQQGNVFSCSVMHEALHNHYTQKSLSLSPG
light: DIQMTQSPSSLSASVGDRVTITCRASESVEYYVTSLMQWYQQKPGKAPKLLIYAASNVDSGVPSRFSGSGSGTDFTLTISSLQPEDIATYYCQQSRKVPFTFGGGTKVEIKRTVAAPSVFIFPPSDEQLKSGTASVVCLLNNFYPREAKVQWKVDNALQSGNSQESVTEQDSKDSTYSLSSTLTLSKADYEKHKVYACEVTHQGLSSPVTKSFNRGEC
notes: also called v37638 format, CD28 VH L1112aN
- Fold-change from WT [1]: 4.9 fold
- Kd [1]: 109 nM
- koff [1]: 0.0107 s⁻¹
- kon [1]: 98600 M⁻¹ s⁻¹
- IC50, T cell-dependent cytotoxicity on SNU 601 [2]: 0.08 pM
- Maximum Killing (%), SNU 601 [2]: 91%
- IL-2 maximum cytokine, T cells alone [3]: 185 pg/mL
- IL-2 maximum cytokine, T cells with SNU 601 cells [3]: 3360 pg/mL
- TNFa maximum cytokine, T cells alone [3]: 33.6 pg/mL
- TNFa maximum cytokine, T cells with SNU 601 cells [3]: 473 pg/mL

B3: v37692 (trispecific antibody, human IgG1, kappa, L234A L235A)
heavy 1: not shown
heavy 2: QVQLVESGGGLVQPGGSLRLSCSVSGIDLSSNPMIWVRQAPGKGLQYIGIIDTDGSTYYADWAKGRFTISKDSTTVYLQINSPRAEDTAVYYCARRLHGSSNGYYDDLWGQGTLVTVSSGGGGSGGGGSGGGGSGGGGSDGQMTQSPSSVSASVGDRVTITCQASQSIYSYLSWYQQKPGQRPKLLIYKASTLASGVPSRFSGSGSGTDFTLTISSVQPEDFATYYCQQGYTVTNVDKNTFGGGTKVEIKAAEPKSSDKTHTCPPCPAPEAAGGPSVFLFPPKPKDTLMISRTPEVTCVVVSVSHEDPEVKFNWYVDGVEVHNAKTKPREEQYNSTYRVVSVLTVLHQDWLNGKEYKCKVSNKALPAPIEKTISKAKGQPREPQVYVLPPSRDELTKNQVSLLCLVKGFYPSDIAVEWESNGQPENNYLTWPPVLDSDGSFFLYSKLTVDKSRWQQGNVFSCSVMHEALHNHYTQKSLSLSPG
light: DIQMTQSPSSLSASVGDRVTITCRASESVEYYVTSLMQWYQQKPGKAPKLLIYAASNVDSGVPSRFSGSGSGTDFTLTISSLQPEDIATYYCQQSRKVPFTFGGGTKVEIKRTVAAPSVFIFPPSDEQLKSGTASVVCLLNNFYPREAKVQWKVDNALQSGNSQESVTEQDSKDSTYSLSSTLTLSKADYEKHKVYACEVTHQGLSSPVTKSFNRGEC
notes: also called v37638 format, CD28 VH Y1113S
- Fold-change from WT [1]: 95.1 fold
- Kd [1]: 2110 nM
- koff [1]: 0.0613 s⁻¹
- kon [1]: 32200 M⁻¹ s⁻¹
- IC50, T cell-dependent cytotoxicity on SNU 601 [2]: 0.63 pM
- Maximum Killing (%), SNU 601 [2]: 91.5%
- IL-2 maximum cytokine, T cells alone [3]: 120 pg/mL
- IL-2 maximum cytokine, T cells with SNU 601 cells [3]: 2890 pg/mL
- TNFa maximum cytokine, T cells alone [3]: 20.2 pg/mL
- TNFa maximum cytokine, T cells with SNU 601 cells [3]: 476 pg/mL

B4: v37693 (trispecific antibody, human IgG1, kappa, L234A L235A)
heavy 1: not shown
heavy 2: QVQLVESGGGLVQPGGSLRLSCSVSGIDLSSNPMIWVRQAPGKGLQYIGIIDTDGSTYYADWAKGRFTISKDSTTVYLQINSPRAEDTAVYYCARRLHGSSNGYYDDLWGQGTLVTVSSGGGGSGGGGSGGGGSGGGGSDGQMTQSPSSVSASVGDRVTITCQASQSIYSYLSWYQQKPGQRPKLLIYKASTLASGVPSRFSGSGSGTDFTLTISSVQPEDFATYYCQQGYTVTNVDKNTFGGGTKVEIKAAEPKSSDKTHTCPPCPAPEAAGGPSVFLFPPKPKDTLMISRTPEVTCVVVSVSHEDPEVKFNWYVDGVEVHNAKTKPREEQYNSTYRVVSVLTVLHQDWLNGKEYKCKVSNKALPAPIEKTISKAKGQPREPQVYVLPPSRDELTKNQVSLLCLVKGFYPSDIAVEWESNGQPENNYLTWPPVLDSDGSFFLYSKLTVDKSRWQQGNVFSCSVMHEALHNHYTQKSLSLSPG
light: DIQMTQSPSSLSASVGDRVTITCRASESVEYYVTSLMQWYQQKPGKAPKLLIYAASNVDSGVPSRFSGSGSGTDFTLTISSLQPEDIATYYCQQSRKVPFTFGGGTKVEIKRTVAAPSVFIFPPSDEQLKSGTASVVCLLNNFYPREAKVQWKVDNALQSGNSQESVTEQDSKDSTYSLSSTLTLSKADYEKHKVYACEVTHQGLSSPVTKSFNRGEC
notes: also called v37638 format, CD28 VH Y1037A
- Fold-change from WT [1]: 4.1 fold
- Kd [1]: 91.8 nM
- koff [1]: 0.00968 s⁻¹
- kon [1]: 106000 M⁻¹ s⁻¹
- IC50, T cell-dependent cytotoxicity on SNU 601 [2]: 0.13 pM
- Maximum Killing (%), SNU 601 [2]: 95.3%
- IL-2 maximum cytokine, T cells alone [3]: 104 pg/mL
- IL-2 maximum cytokine, T cells with SNU 601 cells [3]: 3600 pg/mL
- TNFa maximum cytokine, T cells alone [3]: 19.7 pg/mL
- TNFa maximum cytokine, T cells with SNU 601 cells [3]: 453 pg/mL

B5: v37695 (trispecific antibody, human IgG1, kappa, L234A L235A)
heavy 1: not shown
heavy 2: QVQLVESGGGLVQPGGSLRLSCSVSGIDLSSNPMIWVRQAPGKGLQYIGIIDTDGSTYYADWAKGRFTISKDSTTVYLQINSPRAEDTAVYYCARRLHGSSNGYYDDLWGQGTLVTVSSGGGGSGGGGSGGGGSGGGGSDGQMTQSPSSVSASVGDRVTITCQASQSIYSYLSWYQQKPGQRPKLLIYKASTLASGVPSRFSGSGSGTDFTLTISSVQPEDFATYYCQQGYTVTNVDKNTFGGGTKVEIKAAEPKSSDKTHTCPPCPAPEAAGGPSVFLFPPKPKDTLMISRTPEVTCVVVSVSHEDPEVKFNWYVDGVEVHNAKTKPREEQYNSTYRVVSVLTVLHQDWLNGKEYKCKVSNKALPAPIEKTISKAKGQPREPQVYVLPPSRDELTKNQVSLLCLVKGFYPSDIAVEWESNGQPENNYLTWPPVLDSDGSFFLYSKLTVDKSRWQQGNVFSCSVMHEALHNHYTQKSLSLSPG
light: DIQMTQSPSSLSASVGDRVTITCRASESVEYYVTSLMQWYQQKPGKAPKLLIYAASAVDSGVPSRFSGSGSGTDFTLTISSLQPEDIATYYCQQSRKVPFTFGGGTKVEIKRTVAAPSVFIFPPSDEQLKSGTASVVCLLNNFYPREAKVQWKVDNALQSGNSQESVTEQDSKDSTYSLSSTLTLSKADYEKHKVYACEVTHQGLSSPVTKSFNRGEC
notes: also called v37638 format, CD28 VL N1066A
- Fold-change from WT [1]: 1.3 fold
- Kd [1]: 27.7 nM
- koff [1]: 0.00266 s⁻¹
- kon [1]: 95100 M⁻¹ s⁻¹
- IC50, T cell-dependent cytotoxicity on SNU 601 [2]: 0.04 pM
- Maximum Killing (%), SNU 601 [2]: 89.1%
- IL-2 maximum cytokine, T cells alone [3]: 28.9 pg/mL
- IL-2 maximum cytokine, T cells with SNU 601 cells [3]: 3470 pg/mL
- TNFa maximum cytokine, T cells alone [3]: 13 pg/mL
- TNFa maximum cytokine, T cells with SNU 601 cells [3]: 404 pg/mL

B6: v34919 (bispecific antibody, human IgG1, lambda, L234A L235A)
heavy 1: not shown
heavy 2: EIVLTQSPATLSLSPGERVTMSCSASSSVSYMHWYQQKPGQAPRLWIYDTSKLASGVPARFSGSGSGTDYTLTISSVEPEDNAVYYCQQWSGHPLTFGQGTKVEIKGGGGSGGGGSGGGGSGGGGSQVQLVQSGAEVKKPGASVKISCKASGYSFTGYTMNWVRQAPGQGLEWIGLITPYSGASSYAQKFQGRATLTVDKSTSTAYMELSSLRSEDTAVYYCARGGYDGRGFDYWGQGTNVTVSSAAEPKSSDKTHTCPPCPAPEAAGGPSVFLFPPKPKDTLMISRTPEVTCVVVSVSHEDPEVKFNWYVDGVEVHNAKTKPREEQYNSTYRVVSVLTVLHQDWLNGKEYKCKVSNKALPAPIEKTISKAKGQPREPQVYVLPPSRDELTKNQVSLLCLVKGFYPSDIAVEWESNGQPENNYLTWPPVLDSDGSFFLYSKLTVDKSRWQQGNVFSCSVMHEALHNHYTQKSLSLSPG
light: NFMLTQPHSVSESPGKTVTISCKRNTGNIGSNYVNWYQQHEGSSPTTIIYRNDKRPDGVSDRFSGSIDRSSKSASLTISNLKTEDEADYFCQSYSSGFIFGGGTKLTVLGQPKAAPSVTLFPPSSEELQANKATLVCLISDFYPGAVTVAWKADSSPVKAGVETTTPSKQSNNKYAASSYLSLTPEQWKSHRSYSCQVTHEGSTVEKTVAPTECS
notes: MSLN VL-VH scFv); also called anti-(MSLNxCD3) bispecific control
- Kd [4]: 4.16 nM
- koff [4]: 0.00181 s⁻¹
- kon [4]: 458000 M⁻¹ s⁻¹
- Kd [5]: 50.4 nM
- koff [5]: 0.0131 s⁻¹
- kon [5]: 267000 M⁻¹ s⁻¹
